The nature of the series: yeast display, Sf9 membrane polyspecificity reagent, FACS + sequencing; frameworks hold sequencing errors. Summed up:
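In a synthetic yeast display library (Saccharomyces cerevisiae BJ5465), nanobody expression was induced with galactose for 36–48 hours. FACS gates were set low and high (top ~1%) using anti-HA fluorescence for expression and streptavidin fluorescence for binding of the Sf9 membrane reagent. Each polyreactivity label is drawn from the gate of origin.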
With “QVQLVESGGRVLQAGGSLRLSCAASGRIFSYNDMGWYRQAPGKERELVATITSGDSTISADSVKGRFTISRDNAKNTVYLQMNSLKPEDTAVYYCATDIYGLPVDYWGQGTQVTVSS”, the “polyreactivity (PSR sort gate)” value is recorded as “low polyreactivity”.
The value for “QVQLVETGGGLVQAGGSLRLICAASGSTFQNNAMGCYIQAPGKERELVAAIRFSGGSTYYADSVKGRFTISRDNAKNTVYLQMNSLKPEDTAVYYCNAVVKRWSDYSYPVRYDYWGQGTQVTVSS” was “high polyreactivity”; that for “QVQLVESGGVLVQAGGSLRLSCAASGITLTANAMGWYRQAPGKERELVAAISRGGSKYYADSVKGRFTISRDNAKNPGYLQMNSLKPEDTAVYYCNKAGGYWYAKRDYDYWGQVTQVTVSS” was “high polyreactivity”.
The value for “QVQLVESGGGLVQAGGSLRLSCAASGIIFSKYAMGWYRQAPGKERELVAAISWNGVSTYYADSVKGRFTISRDNAKNTVYLQMNSLKPEDTAVYYCAADTYRSRRISYYWGQGTQVTVSS” was “low polyreactivity”; that for “QVQLVESGGGLVQAGGSLRLSCAASGRILSYYAMGWYRQAPGKERELVAVIRRGASTYADSVKGRFTISRDNAKNTVYLQMNSLKPEDTAVYYCNAERVVGLSATKYGYWGQGTQVTVSS” was “low polyreactivity”; that for “QVQLVESGGGLVQAGGSLRLSCAASGSIFDVNAMGWYRQAPGKERELVAAISDSGGSTYYADSVKGRYTISRDNAKNTVYLQMNSLKPEDTAVYYCNADWSWYNYYDFDYWGQGTQVTVSS” was “low polyreactivity”.
The value for “QVQLVESGGGLVQAGGSLRLSCAASGFNFNYNAMGRYREAPGKERELVAAISTSGSSTYYADSVKGRFTISRDNAKNTVYLQMNSLKPEDTAVYYCAARRSTRHRYRVGTCYKYDYWGQGTQVTVSS” was “high polyreactivity”; that for “QVQLVESGGGLVQAGGSLRLSCAASGRIFWRYAMGWYRQAPGKERELVAAITGRTGSTNYADSVKGRFTISRDNANNTVYLQMNSLKREDTAVYYCAAAHHRWTGLFPSGYEFDYWGQGTQVTVSS” was “low polyreactivity”.
In the case of “QVQLVESGGGLVQAGGSLRLSCAASGSIFEYNGMGWYRQAPGKERELVAAITTTGTTDYADSVKGRFTISRDNAKNTVYLEMNSLIPEDTSVFYCAADYTYYYKGEYEYWGQGTQVTVSS”, the “polyreactivity (PSR sort gate)” value is on record as “low polyreactivity”.
The value for “QVQLVESGGGLVQAGGSLRLSCAASGSIFNTYAMGWYRQAPGKERELVAAISRSGDSTYYADSVKGRFTISRDNAKNTVYVQMNSLKPEDSAVYYCATGRTDHGYYYWGQGTQVTVSS” was “high polyreactivity”.
Consider “QVKLVESAAGLVQAGGSLRLSCDASGFTFALYANGLYIQAPRKERELVAVITYCGGRTYYADSVKGRFTISRVNAKNTVYLLMYSLKPEDTAVYYCNARYRQKGLYGTAFDYWGQGTQVTVSS”, for which the “polyreactivity (PSR sort gate)” value was “high polyreactivity”.
The value for “QVQLVESGGGLVKAGGSLRLSCAASGINFYRYAMGWYRQAPGKERELVAAITWSGVSTSYADSVKGRFTISRDNAKKTVYLQMNSLKPEDTAVYYCNTDPGTLYGDMDSWGQGTQVTVSS” was “low polyreactivity”; that for “QVQLVESGGGLVQAGGSLRLSCAASGFTFGFYAMGWYRQAPGKERELVAAITSGGGTTYYADSVKGRFTISRDNAKNTVYLQMNSLKPEYTAVYYCNADPDVPFFSWLTGRGTYDYWGQGTQVTVSS” was “low polyreactivity”.
“QVQLVESGGGLVQAGGSLRLSCAASGSTFRANLMGRYRQAPGKERELVAAITSAGGSTYYADSVKGRFTISRDNAKNTVYIQMNSLKPEDTAVYYCNKQERPGPGRARYNYWGQGTQVTVSS”: the “polyreactivity (PSR sort gate)” value was “high polyreactivity”.
The value for “QVQLVESGGSLVQAGGSLRLSCAASGRIFITNAMGAYRQAPGKERELVAAIRRRGGNTYYADSVKGRFTISRDNAKNTVYLQMNSLKPEDTAVYYCAVYPRPYKYNYWGQGTQVTVSS” was “high polyreactivity”.
As for “QVQLVESGGGLVQAGGSLRLSCAASGIIFHPYAMGWYRQAPGKERELVAVITWPGDSTYYADSVKGRFRISRDNAKNTVYLQMNSLKPEDTAVYYCNVDAWGTSGELPYDYWGQGTQVTVSS”, the entry is “low polyreactivity”.
On to “QVQLVESGGGLVQAGGSLRLSCAASGSTFGSNAMGWYREAPGKERELVAAIDANGGSTYYADSVKGRFTISRDNAKNTVYLQMNSLKPEDTAVYYCAAAGYWYYYVPNDYWGQGTQVTVSS”, for which the “polyreactivity (PSR sort gate)” value is on record as “low polyreactivity”.
The value for “QVQLVESGVGLVQAGGSLRLSCAASGYIFRLYAMGGYRQAPGKERELVATITASGGTYYADSVKGRFTISRDNAKNTVYLQMNSLKPEDTAVYYCAAAKLRRLSRVRYGYWGQGTQVTVSS” was “high polyreactivity”; that for “QVQLVESGGGLVQAGGSLRLSCAASGRTFDFYAMGWYRQAPGKERELVAAITFSTGSTTYADSVKGRFTISRDNAKNTVYLQMNSLKPEDTAVYYCGADGDGWWWSYVDRYDYWGQGTQVTVSS” was “low polyreactivity”.
As for “QVQLVESGGGLVQAGGSLRLSCAASGRIFNDYTMGWYRPAPGKERELVAAITNRDTSTSYADSVKGRFTISRDNAKNTVYLQMNSLKPEDTAVYYCNAQQVIVVYRPGDYWGQGTQVTVSS”, the entry is “low polyreactivity”; as for “QVQLVESGGGLLQAGGSLRLSCAASGSIFRRNAMGWYRQAPGKERELVAAITTRGSRTTYADSVKGRFTISRDNAKNTVYLQMNSLKPEDTAVYYCAARQHFSYSFHVAYDYWGQGTQVTVSS”, “high polyreactivity”; as for “QVQLVESGGGLVQAGGSLRLSCAASGFTFDTYAMGWYRQAPGKERELVAAISWGGGSTFYADSVKGRFTISRDNAKNTVYLQMNSLKPEDTAVYYCAAEIPGYYVFNYGYWYYEYDYWGQGTQVTVSS”, “high polyreactivity”.
The value for “QVQLVESGGGLVQAGGSLRLSCAASGRIFADYAMGWNRHAPGKQRELVAAITWSGDRTYYADSVKGRFTISRDNAKNTVYLQMNSLKPEDTAVYYCAARARLRRYNYWGQGTQVTVSS” was “high polyreactivity”.
For the sequence “QVQLVESGGGLVQTGGSLRLICAASGRTFAVNDMGWYRQARGKERELVAAITWRGDSTYYADSVKGRFTISRDNAKNTVYLQMISLKPEDTAVYYCNAYYDGDWRYTSLETGEHWGQGTQVTVSS”, the “polyreactivity (PSR sort gate)” value is on record as “low polyreactivity”.
The value for “QVQLVESGGGLVQAGGRLRLTCAASGSIFPTYDLGWYRQAPGKERELVAAIRGDGSTNYADSVKGRFTISRDNAKNTVYVQMNSLKPEDTAVSYCAAVSSEYVFRYGGYWGQGTQVTVSS” was “low polyreactivity”; that for “QVQLVESGGGLVQAGGSLRLICAASGRTFVKNAMGWSRQAPGKERELVAAIDRGSRTNYADSVKGRFTISRDNAKNTVYLQMNSLKPEDTAVYYCATRYRVRDDQTGTWSIFGYWGQGTQVTVSS” was “high polyreactivity”.
The value for “QVQLLESGGGLVQAGGCLRLSCAASGSIFYPYALGGYRQAPGIVRELVAAISSREGRSYYADSVKGRFTISRDNGKKTVYLQMNSLKPEDTAVYYCAACSFNYGHRFYWGQGSQVTVSS” was “high polyreactivity”; that for “QVQLVESGGGLVQAGGSLRLSCAASVRIFGSNVMGWYRQAPGKERELVAAINWIGGSTYYADSVKGRFTISRDNAKNTVYLQMNSLKPEDTAVYYCARKRYNGRGYVGYYYWGQGTQVTVSS” was “high polyreactivity”.
As for “QVQLVESGGGLVQAGGSLRLSCAASGSILYRYTMGWYRQAPGIERELVAAITKRGGRTYYADSVKGRFTISRDNAKNTVYLQTNSLKPEDTAVYYCAAKYYTGGSFEMYYWGQGTQVTVSS”, the entry is “high polyreactivity”.
Consider “QVQLVESGGGLVQAGGSLRLSCAASGRIFDYYGMGWYRHAPGKERELVAAITSSGSRTYYADSVKGRFTISRDNAKNTVYLQMNSLKPEDTAVYYCARGGGRRKGLVDYWGQGTQVTVSS”, for which the “polyreactivity (PSR sort gate)” value was “low polyreactivity”.
As for “QVQLVESGGGLVQAGGSLRLSCAASGRTFHYYTMGWYRQAPGKERELVAAISQSGGRTYYADSVKGRFTISRDNAKNTVYLQMNSLKPEDTAVYYCAAVSWRVISDYRIVGYDYWGQGTQVTVSS”, the entry is “low polyreactivity”.
As for “QVQLVESGGGLVQAGGSLRLSCAASGSTFRIYAMGWYRQAPGKERELVAAISWSSGSTYYADSVKGRFTISRDNAKNTVYFQMNSLKPEDTAVYYCATYARRSGYYYWGQGTQVTVSS”, the entry is “high polyreactivity”; as for “QVQVVESGGGLVQAGGSLRLSCAGSGSIFRVYAMGWYRQAPGKVREWVASISRRGGSTYYADSVKGRFTISRDNAKNTVYLQMNSLKPEDTAVDYCAAEFVIGGHGYDYWGQGTQVTVSS”, “high polyreactivity”.
As for “QVQLVESGGGLVQAGGSLRLSCAASGSTSRHNTMGWYRQPPGKERELVAAISGGGTTYYADSVKGRFTISRDNAKNTVYLQMNSLKPEDTAVYYCAAAFWGDYASSYRSGLDYWGQGTQVTVSS”, the entry is “low polyreactivity”; as for “QVQLVESGGGLVQAGGSLRLSCAASGSIFRYNAMGWYRQAPGKERELVAAISASGGRTHYADSVKGRFTISRDNAKNTVYLQMNSLKPEDTAVYYCAAATYRGTSLYGYWGQGTQVTVSS”, “high polyreactivity”.
Turning to “QVQLVESGGGLVQAGGSLRLSCAASGSIFGSYAMGWYRPAPGKERELVAAITRAGSTNYADSVKGRFTISRDNAKNTVYLQMNSLKPEDTAVYYCAVRPGFGRSLWYGYWGQGTQVTVSS”, the “polyreactivity (PSR sort gate)” value is “low polyreactivity”.
As for “QVQLVESGGGLVQAGGSLRLSCAASGFIFDPYGMGWYRQAPGKERELVAAITASGGTTYYADSVKGRFTISLDYANNTVYLQLNSLKPEDTAVYYCAAAVWYRGWYRYDYWGQGTKVTVSS”, the entry is “low polyreactivity”; as for “QVQLVESGGGLVQAGGSLRLSCAASGYTFYQNAMGWYRQAPGKERELVAAITFRTGSTYYADSVKGRFTISRDNAKNTVYLQMNSLKPEDTAVYYCAATRFLRYWWYGYWGQGTQVTVSS”, “low polyreactivity”; as for “QVQLVESGGGLVQAGGSLRLSCAASGFIFTGNVMGWYRQAPGKERELVAAIRWSGGRTYYADSVKGRFTISRDNAKNTVYLQMNSLIPEDTAVYYCNALGRVQGYKPGGLDYWGQGTQVTVSS”, “high polyreactivity”.
As for “QVQLVESGGGLVQAGGSLRLSCAASGSTFSGYVMGWYRQAPGKERELVAAISSSGGGSTYYADSVKGRFTISRDNAKNTVYLQMNSLKPEDTAVYYCAARNYRKYDYWGQGTQVTVSS”, the entry is “high polyreactivity”.

(Values after the nanobody polyreactivity screen of Harvey et al. (2022).)
